{
  "source": "paper PMC3593212",
  "about": "“Sequence-Specific, RNA–Protein Interactions Overcome Electrostatic Barriers Preventing Assembly of Satellite Tobacco Necrosis Virus Coat Protein” (Journal of Molecular Biology, 2013)",
  "binders": {"B1": {"name": "satellite tobacco necrosis virus (STNV-1) coat protein (natural protein)", "chain": "MAKQQNNRRKSATMRAVKRMINTHLEHKRFALINSGNTNATAGTVQNLSNGIIQGDDINQRSGDQVRIVSHKLHVRGTAITVSQTFRFIWFRDNMNRGTTPTVLEVLNTANFMSQYNPITLQQKRFTILKDVTLNCSLTGESIKDRIINLPGQLVNYNGATAVAASNGPGAIFMLQIGDSLVGLWDSSYEAVYTDA", "notes": "coat protein of satellite tobacco necrosis virus strain 1 (STNV-1), recombinant version expressed from a synthetic gene; In the T = 1 capsid the chain stands 60 times; all assembly here was done with RNA present; also called STNV CP; CP; source: E. coli (synthetic gene); recombinant VLPs purified, disassembled in 50 mM Hepes, 10 mM EDTA, pH 8.5; CP separated from the mRNA by Q-Sepharose FF and SP …"}, "B2": {"name": "B3 aptamer (structured_RNA)", "RNA": "CCUUUUCAAGACAUGCAACAAUGCACACAG"}, "B3": {"name": "B3 short (structured_RNA)", "RNA": "CGUGCAACAAUGCACG"}, "B4": {"name": "MS2 TR (structured_RNA)", "RNA": "ACAUGAGGAUUACCCAUGU"}},
  "key": {"[1]": {"molecular_target": "the molecule itself", "assay": "crystal structure; VLP reassembled from purified CP with B3 RNA aptamer (5:1 w/w CP:RNA) in 50 mM Hepes, 3 mM CaCl2, pH 7.5, purified by SEC; crystals in 50 mM phosphate pH 6.2-6.8, 0.2-0.8% PEG 6000, 0-1 mM MgCl2, 25 °C; strict 60-fold NCS"}, "STNV-1 coat protein (CP) [2]": {"molecular_target": "T1, STNV-1 coat protein (CP) (Satellite tobacco necrosis virus 1 …, UniProt P03606 1-196)", "T1 sequence": "B1 chain", "assay": "analytical ultracentrifugation (capsid reassembly), TEM; VLPs form even at lowest molar ratio; 28 S and ~42 S species at 1:1; Reassembly buffer, salt, pH and temperature not in the material (capsid assembly depends on calcium and pH); short RNAs at molar ratios incl. 1:1 and 2.5:1; CP", "conditions": "protein: recombinant; hairpin, 4-nt loop ACAA"}, "STNV-1 coat protein (CP) [3]": {"molecular_target": "T1, STNV-1 coat protein (CP)", "assay": "analytical ultracentrifugation (capsid reassembly); assembly more efficient than B3; Reassembly buffer, salt, pH and temperature not in the material (capsid assembly depends on calcium and pH); short RNAs at molar ratios incl. 1:1 and 2.5:1; CP", "conditions": "protein: recombinant; hairpin, 4-nt loop ACAA"}, "STNV-1 coat protein (CP) [4]": {"molecular_target": "T1, STNV-1 coat protein (CP)", "assay": "analytical ultracentrifugation (capsid reassembly); heterologous RNA; triggers capsid assembly; Reassembly buffer, salt, pH and temperature not in the material (capsid assembly depends on calcium and pH); short RNAs at molar ratios incl. 1:1 and 2.5:1; CP", "conditions": "protein: recombinant; hairpin, loop AUUA"}},
  "data": [
    {"binder": "B1", "values": [
      {"measurement": "stoichiometry N", "setting": "[1]", "value": 60}
    ]},
    {"binder": "B2", "values": [
      {"measurement": "binding result", "setting": "STNV-1 coat protein (CP) [2]", "value": "binds"}
    ]},
    {"binder": "B3", "values": [
      {"measurement": "binding result", "setting": "STNV-1 coat protein (CP) [3]", "value": "binds"}
    ]},
    {"binder": "B4", "values": [
      {"measurement": "binding result", "setting": "STNV-1 coat protein (CP) [4]", "value": "binds"}
    ]}
  ]
}
